Key:
[1] = target: T1, von Willebrand factor (VWF) (Homo sapiens, UniProt P04275 P04275:764-2813); test: filter; Bmax 67%; 2 mM CaCl2, 37 C; conditions: tags: factor VIII free, Haematologic Technologies Inc; label: 5'-32P
Experimental: (§1) Affinity constants (Kd values) were determined using double-filter nitrocellulose filter binding assays (Rusconi et al, Thromb. Haemost. $4:841-848 (2000)). All binding studies were performed in binding buffer F (20 mM HEPES, pH 7.4, 150 mM NaCl, 2 mM CaCl₂, and 0.01% BSA) at 37° C. Human purified VWF (factor VIII free) was purchased from Haematologic Technologies Inc. (Essex Junction, Vt.) and used in the double-filter nitrocellulose filter binding assay to determine the Kd of the aptamers. Briefly, RNA were end-labeled at the 5′ end with T4 polynucleotide kinase (New England Biolabs, Beverly, Mass.) and [γ³²P] ATP (Amersham Pharmacia Biotech, Piscataway, N.J.) (Fitzwater and Polisky, Methods Enzymol. 267:275-301 (1996)). End-labeled RNA was diluted in binding buffer F, heat denatured at 65° C. for 5 minutes, and subsequently equilibrated at 37° C. Direct binding was performed by incubating trace ³²P-RNA with varying concentrations of VWF protein in binding buffer F at 37° C. for 5 min. The fraction of the nucleic acid-protein complex which bound to the nitrocellulose membrane was quantified with a phosphorimager (Molecular Dynamics, Sunnyvale, Calif.). Non-specific binding of the radiolabeled nucleic acid was subtracted out of the binding such that only specific binding remained (Wong and Lohman, Proc. Natl. Acad. Sci. USA 90:5428-5432 (1993)).

[2] = target: T1, von Willebrand factor (VWF); test: filter; Bmax 78%; 2 mM CaCl2, 37 C; conditions: tags: factor VIII free, Haematologic Technologies Inc; label: 5'-32P
Experimental: as §1

[3] = target: T1, von Willebrand factor (VWF); test: filter; Bmax 81%; 2 mM CaCl2, 37 C; conditions: tags: factor VIII free, Haematologic Technologies Inc; label: 5'-32P
Experimental: as §1

[4] = target: T1, von Willebrand factor (VWF); test: filter; Bmax 87%; 2 mM CaCl2, 37 C; conditions: Haematologic Technologies Inc, label: 5'-32P
Experimental: as §1

[5] = target: T1, von Willebrand factor (VWF); test: filter; Bmax 80%; 2 mM CaCl2, 37 C; conditions: Haematologic Technologies Inc, label: 5'-32P
Experimental: as §1

[6] = target: T1, von Willebrand factor (VWF); test: filter; Bmax 54%; 2 mM CaCl2, 37 C; conditions: tags: factor VIII free, Haematologic Technologies Inc; label: 5'-32P
Experimental: as §1

[7] = target: T1, von Willebrand factor (VWF); test: filter; Bmax 86%; 2 mM CaCl2, 37 C; conditions: tags: factor VIII free human purified VWF, Haematologic Technologies Inc; label: 5'-32P
Experimental: as §1

[8] = target: T1, von Willebrand factor (VWF); test: filter; Bmax 82%; 2 mM CaCl2, 37 C; conditions: tags: factor VIII free, Haematologic Technologies Inc; label: 5'-32P
Experimental: as §1

[9] = target: T1, von Willebrand factor (VWF); test: filter; Bmax 58%; 2 mM CaCl2, 37 C; conditions: tags: factor VIII free, Haematologic Technologies Inc; label: 5'-32P
Experimental: as §1

[10] = target: T1, von Willebrand factor (VWF); test: filter; Bmax 88%; 2 mM CaCl2, 37 C; conditions: Haematologic Technologies Inc, label: 5'-32P
Experimental: as §1

[11] = tags: factor VIII free human purified VWF

How did the Kd [1] turn out when ACGAACUGCCCUCGAUCGACGCACAGACGU (ssRNA, mAmCmGmAmAmCmUmGfCfCfCmUmCmGmAmUmCmGmAfCrGfCmAmCmAmGmAmCmGmUidT) [DTRI-008] was run?
The Kd was 7 nM.

For ACGAACUGCCCUCGAUCGACGCACAGACGUUUUUU (ssRNA, rAfCrGmAmAmCfUrGfCfCfCfUmCmGmAmUmCmGrAfCrGfCrAmCmAmGmAfCrGfUmUmUmUmUmU-idT) [T79 vrt1], which Kd [2] is on record?
The Kd was 1.9 nM.

Which Kd [3] does the source give for ACGAACUGCCCUCGAUCGACGCACAGACGUUUUUU (ssRNA, mAmCmGmAmAmCmUmGfCfCfCmUmCmGmAmUmCmGmAfCrGfCmAmCmAmGmAmCmGfUmUmUmUmUmU-idT) [T79 vrt2] here?
Its Kd is 24 nM.

For ACGAACUGCCCUCGAUCGACGCACAGACGU (ssRNA, rAfCrGmAmAmCfUrGfCfCfCmUmCmGmAmUmCmGmAfCrGfCrAmCmAmGmAfCrGfU-idT) [T59 vrt2], which Kd ([4]; tags: factor VIII free) is on record?
The Kd was 5.5 nM.

Which Kd [3] does the source give for ACGAACUGCCCUCGAUCGACGCACAGACGU (ssRNA, mAmCmGmAmAmCfUrGfCfCfCmUmCmGmAmUmCmGmAfCrGfCrAmCmAmGmAmCmGfU-idT) [T59 vrt14] here?
The Kd was 1.7 nM.

B1: T90 vrt1 (ssRNA)
RNA: ACGAACUGCCCUCUAUUAUUUGACGCACAGACGU
modifications: 2'-F C2,U7,C9,C10,C11,U12,C24,C26,C32,U34; ribo A1,G3,G8,A23,G25,A27,G33; rest 2'-OMe; 3' idT
For B1, which Kd [4, 11] is on record?
Its Kd is 0.9 nM.

Which Kd [5, 11] does the source give for ACGAACUGCCCUCUAUUAUUUGACGCACAGACGU (ssRNA, 2'-F C9,C10,C11,C24,G25,C26,U34; rest 2'-OMe; 3' idT) [T90 vrt6] here?
Its Kd is 46 nM.

With ACGAACUGCCCUCUAUUAUUUGACGCACAGACGU (ssRNA, 2'-F C9,C10,C11,C24,G25,C26; rest 2'-OMe; 3' idT) [T90 vrt7] as the binder, how does the Kd [5, 11] read?
Its Kd is 42 nM.

Which Kd [6] does the source give for ACGAACUGCCCUCAGCAUUUCAUUGCUGACGCACAGACGU (ssRNA, 2'-F C and U; 2'-OH A and G; 3' idT) [T40] here?
Its Kd is 11 nM.

Which Kd [7] does the source give for ACGAACUGCCCUCGAUCGACGCACAGACGU (ssRNA, 2'-F U7,C9,C10,C11,U12,C20,C22,U30; ribo G8,A19; rest 2'-OMe; 3' idT) [T59 vrt25] here?
Its Kd is 76 nM.

Which Kd [8] does the source give for ACGAACUGCCCUCGAUCGACGCACAGACGU (ssRNA, mAmCmGmAmAmCmUmGfCfCfCmUmCmGmAmUmCmGmAfCrGfCmAmCmAmGmAmCmGfU-idT) [T59 vrt19] here?
The Kd was 5.5 nM.

Which Kd [3] does the source give for ACGAACUGCCCUCGAUCGACGCACAGACGU (ssRNA, rAfCmGmAmAmCfUrGfCfCfCfUmCmGmAmUmCmGrAfCrGfCrAmCmAmGmAmCrGfU-idT) [T59 vrt10] here?
Its Kd is 0.4 nM.

With ACGAACUGCCCUCGAUCGACGCACAGACGU (ssRNA, mAmCmGmAmAmCmUmGfCfCfCmUmCmGmAmUmCmGmAfCrGfCmAmCmAmGmAmCmGfUidT) [DTRI-006] as the binder, how does the Kd ([5]; tags: factor VIII free) read?
Its Kd is 7 nM.

Which Kd [9] does the source give for ACGAACUGCCCUCAGCUAUUUCAUUUGCUGACGCACAGACGU (ssRNA, 2'-F C and U; 2'-OH A and G; 3' idT) [T36] here?
Its Kd is 11 nM.

With ACGAACUGCCCUCUUAUGACGCACAGACGU (ssRNA, 2'-F C and U; 2'-OH A and G; 3' idT) [T68] as the binder, how does the Kd [8] read?
Its Kd is 16 nM.

B2: T11 (ssRNA)
RNA: GGGAGGACGAACUGCCCUCAGCUACUUUCAUGUUGCUGACGCACAGACGACUCGCUG
modifications: 2'-F C and U; 2'-OH A and G
For B2, which Kd [6] is on record?
The Kd was 16.5 nM.

How did the Kd [9] turn out when ACGAACUGCCCUCAGCAUUAUUGCUGACGCACAGACGU (ssRNA, 2'-F C and U; 2'-OH A and G; 3' idT) [T52] was run?
The Kd was 16 nM.

For ACGAACUGCCCUCGAUCGACGCACAGACGU (ssRNA, rAfCrGmAmAmCfUmGfCfCfCfUmCmGmAmUmCmGrAfCrGfCrAmCmAmGmAfCrGfU-idT) [T59 vrt11], which Kd ([10]; tags: factor VIII free) is on record?
The Kd was 1.3 nM.

ACGAACUGCCCUCGUUUCAUCGACGCACAGACGU (ssRNA, 2'-F C and U; 2'-OH A and G; 3' idT) [T86] was tested. Which Kd ([10]; tags: factor VIII free) did it give?
The Kd was 16 nM.

ACGAACUGCCCUCGUUUCAUCGACGCACAGACGU (ssRNA, 2'-F C9,C10,C11,C24,G25,C26; rest 2'-OMe; 3' idT) [T86 vrt7] was tested. Which Kd [10, 11] did it give?
The Kd was 50 nM.

ACGAACUGCCCUCUUUUUUUUGACGCACAGACGU (ssRNA, 2'-F C and U; 2'-OH A and G; 3' idT) [T95] was tested. Which Kd [3] did it give?
The Kd was 12 nM.

— patent publication US20190218553, “VON WILLEBRAND FACTOR (VWF)-TARGETING AGENTS AND METHODS OF USING THE SAME” (DUKE UNIVERSITY, published 2019)
